Source: US20210380703A1 (RIGEL PHARMACEUTICALS, published 2021)
Where a chain is given by its changes, count along the chain named.

B1: 369_A04 (antibody, V domains shown)
VH: EVQLLESGGGLVQPGGSLRLSCAASGFTFDSYGMHWVRQAPGKGLEWVASINYNGGYKSYADSVKGRFTISRDNSKNTLYLQMNSLRAEDTAVYYCARAATWHDTHLDYWGQGTLVTVSS
VL: DIQMTQSPSSLSASVGDRVTITCRASQSIVSYVNWYQQKPGKAPKLVIYAATSLASGVPSRFSGSGSGTDFTLTISSLQPEDFATYYCQQSYDLPLTFGGGTKVEIK
notes: Group II
B2: 373_D11 (antibody, V domains shown)
VH: B1 VH with D30S, S50G, K58T
VL: B1 VL with V30L, S31T, V47L, L54R, L94N
notes: Group II
B3: 373_B01 (antibody, V domains shown)
VH: B1 VH with A49S, S50G
VL: B1 VL with V30L, L54R
notes: Group II
B4: 371_B11 (antibody, V domains shown)
VH: B1 VH with D30S, G33S, G55S, K58T
VL: B1 VL with V30L, S31T, V33L, V47L, L54R, D93E
notes: Group II
B5: 370_E12 (antibody, V domains shown)
VH: B1 VH with S50G, K58T
VL: B1 VL with V30L, V47L, L54R, D93E, L94N
notes: Group II
B6: 371_A05 (antibody, V domains shown)
VH: B1 VH with D30S, A49S, S50N
VL: B1 VL with V30L, S31T, V33L, V47L, L54R, Y92D, D93N
notes: Group II
B7: 371_G07 (antibody, V domains shown)
VH: B1 VH with D30S, S31D, S50G, K58T
VL: B1 VL with L54R, D93S
notes: Group II
B8: 369_H03 (antibody, V domains shown)
VH: B1 VH with D30S, G33S, G55S, T101N, H106A
VL: B1 VL with V33L, V47L, A51T, L54R, L94T
notes: Group I
B9: 370_G04 (antibody, V domains shown)
VH: B1 VH with D30S, A49S, S50G, K58T, S59G, T101N, H106A
VL: B1 VL with V30L, V47L, L54R, D93S, L94T
notes: Group I
B10: 371_C02 (antibody, V domains shown)
VH: B1 VH with S50G, G55S, K58T, S59G
VL: B1 VL with V30L, S31T, V47L, T52S, A55Q, L94T
notes: Group II
B11: 369_C06 (antibody, V domains shown)
VH: B1 VH with D30S, G33S, A49S
VL: B1 VL with V30L, V47L, L54R, L94S
notes: Group II
B12: 369_C09 (antibody, V domains shown)
VH: B1 VH with D30S, A49S, K58T, S59G
VL: B1 VL with V33L, L54R, A55H
notes: Group II
B13: 369_B07 (antibody, V domains shown)
VH: B1 VH with S50N
VL: B1 VL
notes: Group II
B14: 369_A12 (antibody, V domains shown)
VH: B1 VH with D30S, G33S, G55S, K58T, S59G
VL: B1 VL with V30L, S31T, V33L, V47L, L54R, A55H
notes: Group II
B15: 369_E03 (antibody, V domains shown)
VH: B1 VH with D30S, S50G, K58T
VL: B1 VL with V30L, V47L, D93E, L94N
notes: Group II
B16: 372_B11 (antibody, V domains shown)
VH: B1 VH with D30S, G33S, S50G, G55S, K58T, T101N
VL: B1 VL with V30L, S31T, L94T
notes: Group I
B17: 369_B08 (antibody, V domains shown)
VH: B1 VH with A49S, K58T
VL: B1 VL with V30L, V47L, L54R, D93E, L94S
notes: Group II
B18: 371_B02 (antibody, V domains shown)
VH: B1 VH with H35N, A49S, S50N, K58T
VL: B1 VL with V30L, S31T, D93N, L94N
notes: Group II
B19: 370_H05 (antibody, V domains shown)
VH: B1 VH with D30S, A49S, S50N, K58T
VL: B1 VL with V30L, V33L, V47L, T52S, A55Q, Y92D, D93S
notes: Group II
B20: 371_D05 (antibody, V domains shown)
VH: B1 VH with S31D, A49S, S50G, K58T
VL: B1 VL with V30L, S31T, V33L, V47L, T52S, A55Q, L94S
notes: Group II
B21: 371_A04 (antibody, V domains shown)
VH: B1 VH with H35N, A49S, G55S, K58T, S59G, T101N, H106A
VL: B1 VL with V30L, S31T, V33L, V47L, A51V, L54R, L94T
notes: Group I
B22: 369_C11 (antibody, V domains shown)
VH: B1 VH with D30S, S31D, S50G, K58T, S59G
VL: B1 VL with V30L, V33L, L54R, L94T
notes: Group II
B23: 370_H08 (antibody, V domains shown)
VH: B1 VH with D30S, K58T, T101N
VL: B1 VL with V30L, V47L, L54R, A55H, D93S
notes: Group I
B24: 370_B07 (antibody, V domains shown)
VH: B1 VH with D30S, S50N, G55S
VL: B1 VL with V30L, S31T, V47L, L54R, A55H, D93S, L94S
notes: Group II
B25: 372_D07 (antibody, V domains shown)
VH: B1 VH with D30S, H35N, S50G, K58T
VL: B1 VL with V30L, V33L, V47L, L54R, D93E, L94S
notes: Group II
B26: 371_D12 (antibody, V domains shown)
VH: B1 VH with H35N, A49S, S50G, T101N, H106A
VL: B1 VL with V30L, V33L, V47L, L54R, D93E
notes: Group I
B27: 369_B03 (antibody, V domains shown)
VH: B1 VH with D30S, S50G, K58T, T101N, H106A
VL: B1 VL with V30L, S31T, D93E
notes: Group I
B28: 370_B06 (antibody, V domains shown)
VH: B1 VH with D30S, S50G, K58T
VL: B1 VL with L54R, D93E, L94T
notes: Group II
B29: 370_B01 (antibody, V domains shown)
VH: B1 VH with S31D, A49S, S50G, T101N, H106A
VL: B1 VL with V30L, V47L, A50V, T52S, L54R, D93S
notes: Group I
B30: 370_D06 (antibody, V domains shown)
VH: B1 VH with D30S, H35N, K58T, T101N
VL: B1 VL with V30I, V33L, D93S, L94S
notes: Group I
B31: 369_G10 (antibody, V domains shown)
VH: B1 VH with D30S, K58T, T101N, H106A
VL: B1 VL with V30L, V33L, L54R, L94S
notes: Group I
B32: 372_E02 (antibody, V domains shown)
VH: B1 VH with D30S, H35N, K58T, T101N, H106A
VL: B1 VL with V30I, L54R
notes: Group I
B33: 371_H02 (antibody, V domains shown)
VH: B1 VH with S31D, G33S, H35N, A49S, S50G, T101N
VL: B1 VL with V30I, V33L, D93E, L94N
notes: Group I
B34: 372_A09 (antibody, V domains shown)
VH: B1 VH with H35N, A49S, S50G, K58T, T101N, H106A
VL: B1 VL with V30L, V33L, L54R, D93N, L94S
notes: Group I
B35: 371_A09 (antibody, V domains shown)
VH: B1 VH with D30S, H35N, A49S, S50G, T101N, H106A
VL: B1 VL with S31T, L54R, L94S
notes: Group I
B36: 371_F07 (antibody, V domains shown)
VH: B1 VH with D30S, S50G, K58T
VL: B1 VL with V30L, S31T, V33L, V47L, Y92D, D93S, L94N
notes: Group II

biological target: T1, biotinylated goat anti-human kappa light chain; experiment: ELISA, positive control
T1 construct: positive control of the ELISA
Summary of the method: (§1)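 mAb binding by ELISA; antigens: hu ACVR2A, mu ACVR2A; pos ctrl biotinylated goat anti-hu kappa LC; neg ctrl hu Fc.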
Note: test concentration or dose not given here.

| optical density [OD] | Binder |
| --- | --- |
| 3.5 | B1 |
| 3.2 | B2 |
| 3.11 | B3 |
| 3.59 | B4 |
| 3.66 | B5 |
| 3.6 | B6 |
| 3.41 | B7 |
| 3.47 | B8 |
| 3.51 | B9 |
| 3.66 | B10 |
| 3.17 | B11 |
| 3.41 | B12 |
| 3.39 | B13 |
| 3.72 | B14 |
| 3.37 | B15 |
| 3.73 | B16 |
| 3.29 | B17 |
| 3.59 | B18 |

| optical density [OD] | Binder |
| --- | --- |
| 3.61 | B19 |
| 3.44 | B20 |
| 3.53 | B21 |
| 3.48 | B22 |
| 3.65 | B23 |
| 3.48 | B24 |
| 3.7 | B25 |
| 3.44 | B26 |
| 3.52 | B27 |
| 3.37 | B28 |
| 3.75 | B29 |
| 3.48 | B30 |
| 3.49 | B31 |
| 3.58 | B32 |
| 3.62 | B33 |
| 3.5 | B34 |
| 3.62 | B35 |
| 3.34 | B36 |

biological target: T2, human ACVR2A (human, UniProt P27037 20-135, limits assumed); experiment: ELISA
T2 construct: also called activin receptor, type II A
T2 sequence (P27037 20-135 limits assumed): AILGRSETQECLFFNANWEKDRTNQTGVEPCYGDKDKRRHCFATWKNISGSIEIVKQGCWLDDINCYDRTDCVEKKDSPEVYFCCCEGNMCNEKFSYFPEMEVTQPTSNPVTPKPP
Summary of the method: as §1

| optical density [OD] | Binder |
| --- | --- |
| 2.76 | B1 |
| 3.57 | B2 |
| 3.26 | B3 |
| 3.18 | B4 |
| 3.39 | B5 |
| 3.05 | B6 |
| 2.8 | B7 |
| 2.83 | B8 |
| 1.82 | B9 |
| 2.92 | B10 |
| 2.75 | B11 |
| 2.88 | B12 |
| 2.63 | B13 |
| 3.17 | B14 |
| 3.15 | B15 |
| 2.31 | B16 |
| 2.75 | B17 |
| 2 | B18 |

| optical density [OD] | Binder |
| --- | --- |
| 2.94 | B19 |
| 2.72 | B20 |
| 1.01 | B21 |
| 2.8 | B22 |
| 2.94 | B23 |
| 1.91 | B24 |
| 2.68 | B25 |
| 1.89 | B26 |
| 3.32 | B27 |
| 2.88 | B28 |
| 3.38 | B29 |
| 2.26 | B30 |
| 3.37 | B31 |
| 2.84 | B32 |
| 1.88 | B33 |
| 2.43 | B34 |
| 1.85 | B35 |
| 2.78 | B36 |

biological target: mouse ACVR2A (mouse, UniProt P27038 20-135, limits assumed); experiment: ELISA
Sequence (P27038 20-135 limits assumed): as the sequence (P27037 20-135 limits assumed) above, with K20R, V73I counted along it
Summary of the method: as §1

| optical density [OD] | Binder |
| --- | --- |
| 2.86 | B1 |
| 3.55 | B2 |
| 3.58 | B3 |
| 3.26 | B4 |
| 3.44 | B5 |
| 3.24 | B6 |
| 2.99 | B7 |
| 3.08 | B8 |
| 2.12 | B9 |
| 2.88 | B10 |
| 3.06 | B11 |
| 3.05 | B12 |
| 2.9 | B13 |
| 3.24 | B14 |
| 3.36 | B15 |
| 2.58 | B16 |
| 2.88 | B17 |
| 2.28 | B18 |

| optical density [OD] | Binder |
| --- | --- |
| 3.14 | B19 |
| 3.11 | B20 |
| 1.17 | B21 |
| 2.91 | B22 |
| 3.24 | B23 |
| 2.2 | B24 |
| 2.99 | B25 |
| 2 | B26 |
| 3.31 | B27 |
| 3.09 | B28 |
| 3.47 | B29 |
| 2.66 | B30 |
| 3.29 | B31 |
| 2.74 | B32 |
| 2.03 | B33 |
| 2.56 | B34 |
| 2 | B35 |
| 2.89 | B36 |
